Laboratory results reported in patent US10787640B2, “Producing mesodermal cell types and methods of using the same” (The Board of Trustees of the Leland Stanford Junior …, priority 2015, dated 2020).

Key:
[1] = tested on: hESCs; test: Primitive streak (PS) induction from hESCs, qPCR; type: cell-based, human
Procedure: As aforementioned, after overnight plating, hPSCs were briefly washed (with DMEM/F12) and then differentiated into either anterior primitive streak (30 ng/mL Activin A+4 μM CHIR99021+20 ng/mL FGF2+100 nM PIK90; for subsequent paraxial mesoderm induction) or mid primitive streak ([…] Activin A+40 ng/mL BMP4+6 μM CHIR99021+20 ng/mL FGF2+100 nM PIK90; for subsequent cardiac mesoderm induction) for 24 hrs.
Total cDNA was diluted 1:10-1:30 in H2O and qPCR was performed with the SensiFAST SYBR Lo-ROX Kit (Bioline) with 10 μL qPCR reactions per well in a 384-well plate: 5.0 μL 2× qPCR Master Mix+4.6 μL cDNA (totaling ˜120 ng of cDNA)+0.4 μL of 10 μM primer stock (5 μM forward+5 μM reverse primers). In general, gene-specific primer pairs were tested for (1) specificity of amplicon amplification (only one peak on a dissociation curve) and (2) linearity of amplicon amplification (linear detection of gene expression in cDNA samples serially diluted seven times over two orders of magnitude, with 90-110% efficiency of amplification deemed acceptably linear). After qPCR plates were prepared by arraying sample-specific cDNAs and gene-specific primers, they were sealed and briefly centrifuged (5 mins). 384-well qPCR plates and their adhesive sealing sheets were obtained from Thermo (AB1384 and AB0558, respectively). qPCR plates were run on a 7900HT Fast Real-Time PCR System (Applied Biosystems) with the following cycling parameters: initial dissociation (95° C., 2 mins) followed by 40 cycles of amplification and SYBR signal detection (95° C. dissociation, 5 seconds; 60° C. annealing, 10 seconds; followed by 72° C. extension, 30 seconds), with a final series of steps to generate a dissociation curve at the end of each qPCR run. During qPCR data analysis, the fluorescence threshold to determine Ct values was set at the linear phase of amplification; other qPCR data analysis methods including qPCR heatmap generation using the GenePattern platform (Broad Institute) were described previously by Loh et al., 2014, the disclosure of which is incorporated herein by reference in its entirety.
E) To assess whether inducing PS in the presence of TGFβ signaling altered its downstream potential to form different kinds of mesoderm, (i) H7 hESCs were differentiated into PS with CHIR99021+FGF2+PIK90 (CFK) for 24 hours in the presence or absence of increasing amounts of Activin (10-100 ng/mL), and then were transferred into paraxial mesoderm induction conditions (A-83-01+CHIR99021+DM3189+FGF2) for 24 hrs, and qPCR was conducted or (ii) H7 hESCs were differentiated into PS with BMP4 (10 ng/mL)+CHIR99021+FGF2+PIK90 (B10CFK) for 24 hours in the presence or absence of increasing amounts of Activin (10-100 ng/mL), and then were transferred into lateral/cardiac mesoderm inductions (A-83-01+BMP4+C59) for 24 hours and qPCR was conducted. […] F) To assess whether inducing PS in the presence of BMP signaling altered its downstream potential to form different kinds of mesoderm, H7 hESCs were differentiated into PS with Activin (10 ng/mL)+CHIR99021+FGF2+PIK90 (A10CFK) for 24 hours in the presence of absence of increasing amounts of BMP4 (1-40 ng/mL), and then were (i) transferred into paraxial mesoderm induction conditions (A-83-01+CHIR99021+DM3189+FGF2) for 24 hrs, and qPCR was conducted or were (ii) transferred into lateral/cardiac mesoderm inductions (A-83-01+BMP4+C59) for 24 hours and qPCR was conducted. […] G) H7 hESCs were differentiated into anterior primitive streak (30 ng/mL Activin+4 μM CHIR99021+20 ng/mL FGF2+100 nM PIK90) in the presence or absence of BMP4 (10 ng/mL) for 24 hours, and then transferred into paraxial mesoderm induction conditions for 24 hours before TBX6 immunostaining was conducted. […]

[2] = tested on: hESC-derived cardiac mesoderm; test: Cardiac mesoderm differentiation into cardiovascular fates, qPCR; type: cell-based, human
Procedure: Day 2 lateral mesoderm was differentiated into day 4 cardiac mesoderm by treating them with 1 μM A8301+30 ng/mL BMP4+1 μM C59+20 ng/mL FGF2 for 48 hrs, or alternatively, with 1 μM A8301+30 ng/mL BMP4+20 ng/mL FGF2 for 24 hrs followed by 25 ng/mL Activin+30 ng/mL BMP4+1 μM C59 for the next 24 hrs (schema in FIG. 5E; positive effect of mid-stage Activin shown in FIG. 12K). Subsequently, day 4 cardiac mesoderm was briefly washed (DMEM/F12) and treated with 30 ng/mL BMP4+1 μM XAV939+200 μg/mL 2-phospho-ascorbic acid (Sigma) for 48-96 hrs to yield day 6-8 cardiomyocyte-containing populations. Spontaneously contracting cardiomyocyte foci were evident from day 8 onwards.
C) To reveal the possible identity of non-cardiac mesoderm lineages that were contaminating cardiac mesoderm-containing cultures, NKX2.5-GFP hESCs were differentiated towards mid primitive streak (day 1) and were differentiated towards a heterogeneous population containing cardiac mesoderm (day 3) by treatment with SB-505124+BMP4+C59 (without FGF2) on days 2-3 of differentiation. FACS was performed on day 3 to purify either NKX2.5-GFP^+ or NKX2.5-GFP^− cells (top subpanels) which were sorted for qPCR (bottom subpanels). Gene expression was normalized to expression of a gene in the NKX2.5-GFP^+ fraction (dotted line). D) Timecourse of gene expression in hESCs differentiating towards mid primitive streak and lateral mesoderm, with treatment by SB-505124+BMP4+C59 on days 2-3 of differentiation. […] G) To assess whether a stabilized vitamin C analog (ascorbic acid-2-phosphate) (AA2P) enhanced cardiac mesoderm differentiation into cardiomyocytes, day 4 hESC-derived cardiac mesoderm was exposed to BMP4 (30 ng/mL)+XAV939 (1 μM) for 48 hours in the presence or absence of 200 μg/mL AA2P and qPCR was conducted of day 6 populations; qPCR data were normalized such that expression values in the highest-expressing sample was normalized=1.0. […] J) In the mouse embryo, endocardium (progenitors to heart-affiliated endothelium) are marked by transient coexpression of pan-heart marker Nkx2.5 together with endothelial markers (Ferdous et al., 2009; Stanley et al., 2002).

With `Cc1cnc(-c2cnc(NCCNc3ccc(C#N)cn3)nc2-c2ccc(Cl)cc2Cl)[nH]1` [CHIR99021, 6-[[2-[[4-(2,4-Dichlorophenyl)-5-(5-methyl-1H-imidazol-2-yl)-2-pyrimidinyl]amino]ethyl]amino]-3-pyridinecarbonitrile] the “PS marker expression (qPCR)” value ([1]; 24 hours in A3B3F20, 300 ng/mL WNT3A or 0.5-8 μM CHIR99021) was “broadly induces both anterior (TBX6) and mid/posterior (FOXF1, MESP1) PS markers” and the “differentiation into cardiomyocytes (qPCR day 6)” value ([2]; BMP4 30 ng/mL with CHIR99021 3 μM, 48 hours) was “fully blocked cardiac mesoderm differentiation into cardiomyocytes”.

In the case of `Cc1cccc(-c2[nH]c(C(C)(C)C)nc2-c2ccc3c(c2)OCO3)n1` [SB-505124, 2-[4-(1,3-Benzodioxol-5-yl)-2-(1,1-dimethylethyl)-1H-imidazol-5-yl]-6-methyl-pyridine], the PS differentiation ([1]; CHIR99021+20 ng/mL FGF2+100 nM PIK90 with 2 μM SB-505124 or 1 μM A-83-01) is reported as “strongly impairs PS differentiation”.

B1: Activin: TGFβ agonist (protein, UniProt P08476 311-426, looked up)
Inhibin beta A chain: GLECDGKVNICCKKQFFVSFKDIGWNDWIIAPSGYHANYCEGECPSHIAGTSGSSLSFHSTVINHYRMRGHSPFANLKSCCVPTKLRPMSMLYYDDGQNIIKKDIQNMIVEECGCS
modifications: Inhibin beta A chain
notes: TGFβ agonist
With B1 the subsequent cardiomyocyte differentiation ([2]; day 3 cardiac mesoderm, BMP4+C59+FGF2 with Activin 25 ng/mL, 24 hours) was “enhanced subsequent cardiomyocyte differentiation”.

B2: BMP4: BMP family ligand, BMP agonist (protein, UniProt P12644 293-408, looked up)
Bone morphogenetic protein 4: SPKHHSQRARKKNKNCRRHSLYVDFSDVGWNDWIVAPPGYQAFYCHGDCPFPLADHLNSTNHAIVQTLVNSVNSSIPKACCVPTELSAISMLYLDEYDKVVLKNYQEMVVEGCGCR
With B2 the “PS formation and anterior-posterior patterning” value ([1]; ACFK with LDN193189 250 nM or BMP4 3-100 ng/mL) was “induced posterior PS”, the “cardiovascular fate commitment (TNNT2, MYH6, MYH7)” value ([2]; XAV939 1 μM with BMP4 5-30 ng/mL, 48 hours) was “preferentially promotes commitment to cardiomyocyte fate” and the “cardiomyocyte and endothelial gene expression” value ([2]; day 4 cardiac mesoderm, BMP4 30 ng/mL, 48 hours) was “upregulation of both cardiomyocyte (myocardium) and endothelial (presumptive endocardium) genes”.
